# Paper PMC11643483, “Chip-Scale Aptamer Sandwich Assay Using Optical Waveguide-Assisted Surface-Enhanced Raman Spectroscopy”
# Target: cardiac troponin I (cTnI) (UniProt P19429 2-210)
# Experiment: SERS aptamer sandwich assay on waveguide; 1 ng/mL cTnI stock (25 uL mixed with 50 uL reporter NPs); sandwich with N2-AuNP; no cTnI-free control described; aptamer-AuNPs resuspended in PBS; cTnI incubated 30 min with reporter NPs, then 1 h on waveguide, rinsed with buffer; pH and temperature not stated
# Conditions: protein: commercial
# Sequence of cardiac troponin I (cTnI) (P19429 2-210): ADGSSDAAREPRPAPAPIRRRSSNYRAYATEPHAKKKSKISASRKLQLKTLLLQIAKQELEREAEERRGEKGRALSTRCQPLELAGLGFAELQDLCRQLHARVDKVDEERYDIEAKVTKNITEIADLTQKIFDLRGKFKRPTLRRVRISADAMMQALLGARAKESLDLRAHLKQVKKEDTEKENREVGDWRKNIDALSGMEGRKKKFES
binder,measurement,value
"CGTGCAGTACGCCAACCTTTCTCATGCGCTGCCCCTCTTA (ssDNA, 5'-amine-spacer 18-spacer 18) [primary (capture) aptamer]",binding result,binds
